The target in data set [1] is Asp186 (UniProt position 186, DGFRFDAAKHM). The data set is described as follows: kinetics. As to conditions: 70 °C; mixture of citrate, phosphate and glycine buffers (100 mM each); Enzyme turning over starch and maltose (activity assay); 0.5 U/mL purified enzyme.
The target in data set [2] is Glu216 (UniProt position 216, GIFLAEIWAEA). As to the kind of experiment: kinetics. As to conditions: 70 °C; mixture of citrate, phosphate and glycine buffers (100 mM each); Enzyme turning over starch and maltose (activity assay); 0.5 U/mL purified enzyme.

Values joined by “and” are separate entries in the source; they are usually repeats but may differ in a detail not shown here. Identical values can stand only once.

Drawing on publication PMC10480278, this text covers pKa for three substances.

“4-alpha-glucanotransferase (TmGTase) W131G (Thermotoga maritima; W131G)”: the pKa in data set [1] is 4.7 ± 0.1 and 4.5 ± 0.09; in data set [2], 8.9 ± 0.1.
“4-alpha-glucanotransferase (TmGTase) truncated loop variant (Thermotoga maritima; del120-124;del128-131)”: the pKa in data set [1] was found to be 4.6 ± 0.1; in data set [2] it was 8.9 ± 0.1.
In the same order, the values of “4-alpha-glucanotransferase (TmGTase), wild type (Thermotoga maritima)” are 4.4 ± 0.1 and 8.9 ± 0.1.

The term pKa denotes the pH at which an ionisable group is half protonated.
